# In publication PMC11586170, “Amino-functionalized vertically ordered mesoporous silica film on electrochemically polarized screen-printed carbon electrodes for the construction of gated electrochemical aptasensors and sensitive d”:
# Target: carcinoembryonic antigen (CEA) (UniProt P06731 35-685)
# Assay: electrochemical aptasensor (DPV, Fe(CN)6 3-/4- probe); aptamer immobilized on BSA-blocked NH2-VMSF/p-SPCE; linear range 100 fg/mL-100 ng/mL, LOD 24 fg/mL (not an affinity); aptamer immobilized in 0.01 M PBS pH 7.4 (4 C, 90 min), BSA block 0.1 wt%; CEA incubation 60 min; CEA binding buffer and temperature not in the material
# Conditions: protein: commercial
# carcinoembryonic antigen (CEA), sequence (P06731 35-685): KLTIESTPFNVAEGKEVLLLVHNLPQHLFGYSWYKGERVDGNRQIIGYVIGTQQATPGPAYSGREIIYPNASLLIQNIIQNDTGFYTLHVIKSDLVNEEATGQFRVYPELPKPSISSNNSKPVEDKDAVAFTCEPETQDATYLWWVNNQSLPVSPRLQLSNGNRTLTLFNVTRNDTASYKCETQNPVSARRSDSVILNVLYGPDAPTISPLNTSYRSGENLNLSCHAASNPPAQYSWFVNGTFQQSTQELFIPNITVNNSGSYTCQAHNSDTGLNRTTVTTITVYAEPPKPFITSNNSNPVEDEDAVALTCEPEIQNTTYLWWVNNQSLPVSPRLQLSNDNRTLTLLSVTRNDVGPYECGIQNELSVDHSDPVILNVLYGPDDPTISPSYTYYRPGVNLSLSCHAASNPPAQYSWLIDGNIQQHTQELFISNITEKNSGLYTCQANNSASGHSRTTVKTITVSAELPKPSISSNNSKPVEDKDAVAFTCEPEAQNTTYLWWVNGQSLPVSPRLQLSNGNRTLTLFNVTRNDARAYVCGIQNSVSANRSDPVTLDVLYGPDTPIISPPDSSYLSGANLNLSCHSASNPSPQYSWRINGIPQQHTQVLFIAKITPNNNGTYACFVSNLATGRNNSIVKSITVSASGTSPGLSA
binder,measurement,value
"ATACAGCTTCAATT (ssDNA, 3'-NH2) [amino-modified CEA aptamer (Apt)]",binding result,binds
